Biological target: UL9 protein (origin-binding protein/helicase) (UniProt P10193 P10193:1-851)
Test: EMSA; binding to Box I with attached ssDNA tails verified by gel mobility shift; substrate number not specified
Settings: tags: none stated; baculovirus-infected Sf21 nuclear extract, 83 kDa; chain copies: 2 (homodimer on Box I, stated); label: 5'-32P on 44-mer; forked duplex with 18-nt 3' ssDNA tail and 10-nt 5' ssDNA tail

Chain of UL9 protein (origin-binding protein/helicase) (P10193 whole entry, one chain of several): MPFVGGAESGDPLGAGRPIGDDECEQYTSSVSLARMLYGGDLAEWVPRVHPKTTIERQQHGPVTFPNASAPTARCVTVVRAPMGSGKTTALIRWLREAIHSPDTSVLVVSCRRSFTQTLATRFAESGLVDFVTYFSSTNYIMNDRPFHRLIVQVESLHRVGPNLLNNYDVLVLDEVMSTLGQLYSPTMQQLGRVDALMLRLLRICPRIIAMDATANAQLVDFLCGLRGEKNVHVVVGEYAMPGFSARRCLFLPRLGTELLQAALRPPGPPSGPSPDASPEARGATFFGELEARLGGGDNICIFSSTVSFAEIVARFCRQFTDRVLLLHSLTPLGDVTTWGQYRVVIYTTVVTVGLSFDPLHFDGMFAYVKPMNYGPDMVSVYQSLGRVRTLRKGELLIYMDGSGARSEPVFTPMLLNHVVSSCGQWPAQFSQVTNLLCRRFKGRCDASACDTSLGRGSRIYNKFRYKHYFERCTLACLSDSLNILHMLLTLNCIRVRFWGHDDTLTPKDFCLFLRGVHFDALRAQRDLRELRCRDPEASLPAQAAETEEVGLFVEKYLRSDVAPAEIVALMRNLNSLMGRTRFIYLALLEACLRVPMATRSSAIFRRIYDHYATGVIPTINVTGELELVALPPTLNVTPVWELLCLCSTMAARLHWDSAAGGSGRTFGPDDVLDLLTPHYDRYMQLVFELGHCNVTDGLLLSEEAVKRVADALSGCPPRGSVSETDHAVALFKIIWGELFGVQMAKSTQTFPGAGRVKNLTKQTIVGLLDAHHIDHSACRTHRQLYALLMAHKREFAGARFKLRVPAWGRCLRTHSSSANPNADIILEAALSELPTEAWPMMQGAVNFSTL

B1: Substrate I (18-nt 3' tail on first strand, 5' tail on second strand) (mixed)
DNA 1: CGCGAAGCGTTCGCACTTCGTCCCGCCTTCCTGCGCCTTCCTGT
DNA 2: CATGCTCGCAGCGGGACGAAGTGCGAACGCTTCGCG
**Q.** Does B1 bind?
**A.** binds
